Experimental data taken from patent US11098306B1, “Promoters and uses thereof” (priority 2018, dated 2021).

Tested on: mCherry expression in E. coli
Experiment: Bulk mCherry fluorescence of E. coli strains (plate reader, normalized to OD600) after induction with phenolics
Type: cell-based
Conditions: for improvement of expression levels in comparison with PemrR: 5 mM vanillic acid; for improvement of expression levels in comparison with PemrR / improved gene expression in comparison with PemrR / fold change in comparison with PemrR: 24 h of induction; for increase in fluorescence / protein expression in comparison with native promoter PemrR (control strain RIF01): induced with 5 mM vanillin, 12 h after induction, 30° C.; for improved gene expression in comparison with PemrR: 1 mM coumaric acid; for fold change in comparison with PemrR: 5 mM coumaric acid
Experimental: Cell growth and bulk fluorescence measurements: For the fluorescence experiments, frozen stocks of the strains were used to inoculate 5 ml of LB medium containing 25 mg l^−1 chloramphenicol and incubated at 37° C. with an orbital shaking of 250 r.p.m. Overnight cultures were used to inoculate (0.1% volume/volume) an M9 salt medium containing 25 mg l^−1 chloramphenicol, 20 g l^−1 glucose, and 5 g l^−1 yeast extract. The M9 salt medium (Sigma-Aldrich) contains 6.78 g l^−1 Na2HPO4, 3 g l^−1 KH2PO4, 0.5 g l^−1 NaCl, 1 g l^−1 NH4Cl, 0.1 mM CaCl2), and 2 mM MgSO4. 200 μl cultures of each strain (in triplicates) were loaded into black 96-well plates (black polystyrene plates with flat pclear bottom from Greiner Bio-One) and covered with Breathe-Easier sealing membrane (Sigma).
The cultures were grown until mid-log phase at 37° C. and 250 rpm. The mid-log phase cells were induced with phenolics such as vanillin, coumaric acid, and vanillic acid at varying concentrations. The induced cells were incubated in a plate reader (Tecan Infinite 200 Pro) at 30° C. and a 3 mm shaking amplitude. The optical density of the cultures and the mCherry fluorescence was monitored at required intervals in the plate reader. Cell density was measured by monitoring the absorption of the cultures at 600 nm (OD600). Fluorescence was recorded using an excitation wavelength of 575±9 nm and an emission wavelength of 610±20 nm with a manual gain of 100 and a Z-position of 20,000 μm. Fluorescence readings are reported as normalized fluorescence given by the ratio of fluorescence of the cells to the OD600. The fold changes were reported as the ratio of fluorescence level of the strain with engineered promoter to the strain with the basal promoter.

Molecule | induction of the promoters (PemrR, Pvtac, Pvtrc, Pvtic) by the phenolic (strains RIF01-RIF04, effect emerged after 24 h) | improvement of expression levels in comparison with PemrR | increase in fluorescence / protein expression in comparison with native promoter PemrR (control strain RIF01) | improved gene expression in comparison with PemrR | fold change in comparison with PemrR
COc1cc(C(=O)O)ccc1O [Vanillic acid, vanillic acid, reference compound] | some level of induction | – | – | – | –
Pvtic: engineered hybrid phenolic-inducible promoter, PemrR with spacer region of Ptic, SEQ ID NO:55 (nucleic acid, expressed or natural sequence) DNA: GAATCATTTTTCTAAAACAATACATTTGACAATTAATCATCGCGGCTCGTATAATGATCGGCTGAAATTAATGAGGTCATACCCAAAT | – | 2.1 fold | 1.5 fold | – | –
Pvtac: engineered hybrid phenolic-inducible promoter, PemrR with spacer region of Ptac, SEQ ID NO:53 (nucleic acid, expressed or natural sequence) DNA: GAATCATTTTTCTAAAACAATACATTTGACAATTAATCATCGGCTCGTATAATGATCGGCTGAAATTAATGAGGTCATACCCAAAT | – | 9.5 fold | 4.6 fold | 10.4 fold | 7.1 fold
Pvtrc: engineered hybrid phenolic-inducible promoter, PemrR with spacer region of Ptrc, SEQ ID NO:54 (nucleic acid, expressed or natural sequence) DNA: GAATCATTTTTCTAAAACAATACATTTGACAATTAATCATCCGGCTCGTATAATGATCGGCTGAAATTAATGAGGTCATACCCAAAT | – | 6.8 fold | 3.0 fold | 8.5 fold | 6.4 fold
